Positions count from the first letter of the chain named. Names and notes keep the numbering of the source.

The chains are these.
T1: orthogonal hCD122 receptor (hoRb), hCD122 with H133D and Y134F (human, UniProt P14784 27-550)
T1 sequence: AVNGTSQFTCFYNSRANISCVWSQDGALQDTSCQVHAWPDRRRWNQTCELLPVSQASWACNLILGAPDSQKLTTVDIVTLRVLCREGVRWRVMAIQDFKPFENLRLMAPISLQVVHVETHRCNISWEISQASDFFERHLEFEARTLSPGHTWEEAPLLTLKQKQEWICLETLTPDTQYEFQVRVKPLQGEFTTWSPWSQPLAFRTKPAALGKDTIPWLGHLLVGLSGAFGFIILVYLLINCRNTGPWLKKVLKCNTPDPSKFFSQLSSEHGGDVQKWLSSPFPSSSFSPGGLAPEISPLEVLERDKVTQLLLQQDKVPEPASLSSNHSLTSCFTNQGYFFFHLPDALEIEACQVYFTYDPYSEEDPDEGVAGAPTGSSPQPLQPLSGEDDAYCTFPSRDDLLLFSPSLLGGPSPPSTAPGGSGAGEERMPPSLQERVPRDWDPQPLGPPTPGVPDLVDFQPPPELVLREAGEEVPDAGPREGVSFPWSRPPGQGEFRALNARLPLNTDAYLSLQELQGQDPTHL

B1: ΔR81, SQVLKA (ligand)
chain: APTSSSTKKTQLQLSQLLVLLKAILNGINNYKNPKLTRMLTFKFYMPKKATELKHLQCLEEELKPLEEVLNLAQSKNFHLPRDLISNINVIVLELKGSETTFMCEYADETATIVEFLNRWITFCQSIISTLT
B2: Δ88N, SQVLKA (ligand)
chain: B1 chain with P81R, R82P, D83R, L84D, I85L, S86I, N87S
B3: R81I, SQVLKA (ligand)
chain: APTSSSTKKTQLQLSQLLVLLKAILNGINNYKNPKLTRMLTFKFYMPKKATELKHLQCLEEELKPLEEVLNLAQSKNFHLIPRDLISNINVIVLELKGSETTFMCEYADETATIVEFLNRWITFCQSIISTLT
B4: L85V, SQVLKA (ligand)
chain: B3 chain with I81R, L85V
B5: I86V, SQVLKA (ligand)
chain: B3 chain with I81R, I86V
B6: N88E, SQVLKA (ligand)
chain: B3 chain with I81R, N88E
B7: R81D, SQVLKA (ligand)
chain: B3 chain with I81D
B8: R81Y, SQVLKA (ligand)
chain: B3 chain with I81Y
B9: ΔL14, SQVLKA (ligand)
chain: APTSSSTKKTQLQSQLLVLLKAILNGINNYKNPKLTRMLTFKFYMPKKATELKHLQCLEEELKPLEEVLNLAQSKNFHLRPRDLISNINVIVLELKGSETTFMCEYADETATIVEFLNRWITFCQSIISTLT
B10: ΔT3, SQVLKA (ligand)
chain: B9 chain with T3S, S6T, T7K, K9T, T10Q, Q11L, L12Q, Q13L
Wherever Relative Proliferation Fold Change 3F8 1:10 is given: reference of the scale not given here.
Wherever Relative Proliferation Fold Change 3F8 1:2 is given: reference of the scale not given here.
Wherever Relative Proliferation Fold Change 3F8 1:50 is given: reference of the scale not given here.
Wherever Relative Proliferation Fold Change NKL 1:10 is given: reference of the scale not given here.
Wherever Relative Proliferation Fold Change NKL 1:2 is given: reference of the scale not given here.
Wherever Relative Proliferation Fold Change NKL 1:50 is given: reference of the scale not given here.

The first assay concerns the target T1, orthogonal hCD122 receptor (hoRb), …. The assay can be described thus: cell-based or functional assay.
B1: the “NKL Ortho Proliferation Signal 1:2” value was 62400, the “NKL Ortho Proliferation Signal 1:10” value came to 68800, the “NKL Ortho Proliferation Signal 1:50” value was 31900 and the “Relative Proliferation Fold Change NKL 1:2” value turned out to be 4.84 fold. For the same molecule, the “Relative Proliferation Fold Change NKL 1:10” value was found to be 4.09 fold and the “Relative Proliferation Fold Change NKL 1:50” value came to 2.1 fold.

B2: the “NKL Ortho Proliferation Signal 1:2” value was 4610, the “NKL Ortho Proliferation Signal 1:10” value stood at 7470, the “NKL Ortho Proliferation Signal 1:50” value amounted to 6690 and the “Relative Proliferation Fold Change NKL 1:2” value is 0.42 fold. Further, the “Relative Proliferation Fold Change NKL 1:10” value was found to be 0.59 fold and the “Relative Proliferation Fold Change NKL 1:50” value is 0.58 fold.

In the case of B3, the “NKL Ortho Proliferation Signal 1:2” value was determined as 52800, the “NKL Ortho Proliferation Signal 1:10” value stood at 58000, the “NKL Ortho Proliferation Signal 1:50” value was 27300 and the “Relative Proliferation Fold Change NKL 1:2” value came out at 3.84 fold. Moreover, the “Relative Proliferation Fold Change NKL 1:10” value is 3.85 fold and the “Relative Proliferation Fold Change NKL 1:50” value was 1.92 fold.

For B4, the “NKL Ortho Proliferation Signal 1:2” value was determined as 56300, the “NKL Ortho Proliferation Signal 1:10” value was found to be 49600, the “NKL Ortho Proliferation Signal 1:50” value was 24200 and the “Relative Proliferation Fold Change NKL 1:2” value turned out to be 3.94 fold. In addition, the “Relative Proliferation Fold Change NKL 1:10” value was determined as 3.34 fold and the “Relative Proliferation Fold Change NKL 1:50” value came out at 1.71 fold.

With B5, the “NKL Ortho Proliferation Signal 1:2” value was 39900, the “NKL Ortho Proliferation Signal 1:10” value came out at 38000, the “NKL Ortho Proliferation Signal 1:50” value amounted to 18400 and the “Relative Proliferation Fold Change NKL 1:2” value worked out at 3.82 fold. Moreover, the “Relative Proliferation Fold Change NKL 1:10” value is 2.67 fold and the “Relative Proliferation Fold Change NKL 1:50” value was 1.42 fold.

As to B6, the “NKL Ortho Proliferation Signal 1:2” value turned out to be 6410, the “NKL Ortho Proliferation Signal 1:10” value is 7090, the “NKL Ortho Proliferation Signal 1:50” value was determined as 6480 and the “Relative Proliferation Fold Change NKL 1:2” value was 0.49 fold. Besides, the “Relative Proliferation Fold Change NKL 1:10” value was 0.53 fold and the “Relative Proliferation Fold Change NKL 1:50” value is 0.51 fold.

Regarding B7, the “NKL Ortho Proliferation Signal 1:2” value worked out at 71800, the “NKL Ortho Proliferation Signal 1:10” value was 73800, the “NKL Ortho Proliferation Signal 1:50” value is 44400 and the “Relative Proliferation Fold Change NKL 1:2” value came out at 3.64 fold. In addition, the “Relative Proliferation Fold Change NKL 1:10” value is 4.35 fold and the “Relative Proliferation Fold Change NKL 1:50” value was found to be 3.07 fold.

For the molecule B8, the “NKL Ortho Proliferation Signal 1:2” value turned out to be 59800, the “NKL Ortho Proliferation Signal 1:10” value is 77900, the “NKL Ortho Proliferation Signal 1:50” value was 49500 and the “Relative Proliferation Fold Change NKL 1:2” value came to 3.64 fold. For the same molecule, the “Relative Proliferation Fold Change NKL 1:10” value came out at 4.64 fold and the “Relative Proliferation Fold Change NKL 1:50” value worked out at 3.43 fold.

As to B9, the “NKL Ortho Proliferation Signal 1:2” value is 31800, the “NKL Ortho Proliferation Signal 1:10” value was 23500, the “NKL Ortho Proliferation Signal 1:50” value stood at 12200 and the “Relative Proliferation Fold Change NKL 1:2” value is 2.38 fold. Further, the “Relative Proliferation Fold Change NKL 1:10” value came to 1.6 fold and the “Relative Proliferation Fold Change NKL 1:50” value is 0.86 fold.

For the molecule B10, the “NKL Ortho Proliferation Signal 1:2” value is 60800, the “NKL Ortho Proliferation Signal 1:10” value was determined as 64600, the “NKL Ortho Proliferation Signal 1:50” value came to 32300 and the “Relative Proliferation Fold Change NKL 1:2” value worked out at 4 fold. Also, the “Relative Proliferation Fold Change NKL 1:10” value amounted to 3.73 fold and the “Relative Proliferation Fold Change NKL 1:50” value was 1.99 fold.

A further assay has the same target. The assay can be described thus: cell-based or functional assay. The source holds these as a separate data set.
Turning to B1, the “3F8 Ortho Proliferation Signal 1:2” value turned out to be 28600 cts/min, the “3F8 Ortho Proliferation Signal 1:10” value is 32200 cts/min, the “3F8 Ortho Proliferation Signal 1:50” value turned out to be 22000 cts/min and the “Relative Proliferation Fold Change 3F8 1:2” value stood at 46.4 fold. Moreover, the “Relative Proliferation Fold Change 3F8 1:10” value stood at 39 fold and the “Relative Proliferation Fold Change 3F8 1:50” value was 24 fold.

With B2, the “3F8 Ortho Proliferation Signal 1:2” value is 486 cts/min, the “3F8 Ortho Proliferation Signal 1:10” value was determined as 580 cts/min, the “3F8 Ortho Proliferation Signal 1:50” value was found to be 666 cts/min and the “Relative Proliferation Fold Change 3F8 1:2” value was 2.59 fold. Also, the “Relative Proliferation Fold Change 3F8 1:10” value was 0.79 fold and the “Relative Proliferation Fold Change 3F8 1:50” value is 1.33 fold.

With B3, the “3F8 Ortho Proliferation Signal 1:2” value came out at 40000 cts/min, the “3F8 Ortho Proliferation Signal 1:10” value turned out to be 46000 cts/min, the “3F8 Ortho Proliferation Signal 1:50” value amounted to 20900 cts/min and the “Relative Proliferation Fold Change 3F8 1:2” value was 55.9 fold. In addition, the “Relative Proliferation Fold Change 3F8 1:10” value was determined as 48.8 fold and the “Relative Proliferation Fold Change 3F8 1:50” value was determined as 49.4 fold.

Consider B4, for which the “3F8 Ortho Proliferation Signal 1:2” value came out at 44300 cts/min, the “3F8 Ortho Proliferation Signal 1:10” value turned out to be 41300 cts/min, the “3F8 Ortho Proliferation Signal 1:50” value amounted to 18900 cts/min and the “Relative Proliferation Fold Change 3F8 1:2” value is 39.9 fold. Further, the “Relative Proliferation Fold Change 3F8 1:10” value came to 44.6 fold and the “Relative Proliferation Fold Change 3F8 1:50” value stood at 14.3 fold.

For B5, the “3F8 Ortho Proliferation Signal 1:2” value was found to be 34000 cts/min, the “3F8 Ortho Proliferation Signal 1:10” value worked out at 32600 cts/min, the “3F8 Ortho Proliferation Signal 1:50” value stood at 15100 cts/min and the “Relative Proliferation Fold Change 3F8 1:2” value came to 0.8 fold. For the same molecule, the “Relative Proliferation Fold Change 3F8 1:10” value is 3.76 fold and the “Relative Proliferation Fold Change 3F8 1:50” value was determined as 3.66 fold.

Regarding B6, the “3F8 Ortho Proliferation Signal 1:2” value turned out to be 326 cts/min, the “3F8 Ortho Proliferation Signal 1:10” value is 588 cts/min, the “3F8 Ortho Proliferation Signal 1:50” value came out at 850 cts/min and the “Relative Proliferation Fold Change 3F8 1:2” value turned out to be 1 fold. Further, the “Relative Proliferation Fold Change 3F8 1:10” value came out at 1.2 fold and the “Relative Proliferation Fold Change 3F8 1:50” value is 1.44 fold.

As to B7, the “3F8 Ortho Proliferation Signal 1:2” value amounted to 39300 cts/min, the “3F8 Ortho Proliferation Signal 1:10” value stood at 30000 cts/min, the “3F8 Ortho Proliferation Signal 1:50” value worked out at 10400 cts/min and the “Relative Proliferation Fold Change 3F8 1:2” value amounted to 7.51 fold. Further, the “Relative Proliferation Fold Change 3F8 1:10” value was 13.6 fold and the “Relative Proliferation Fold Change 3F8 1:50” value was determined as 11.5 fold.

B8: the “3F8 Ortho Proliferation Signal 1:2” value turned out to be 35800 cts/min, the “3F8 Ortho Proliferation Signal 1:10” value came out at 46000 cts/min, the “3F8 Ortho Proliferation Signal 1:50” value is 16500 cts/min and the “Relative Proliferation Fold Change 3F8 1:2” value came out at 4.14 fold. Also, the “Relative Proliferation Fold Change 3F8 1:10” value turned out to be 16.6 fold and the “Relative Proliferation Fold Change 3F8 1:50” value is 17.6 fold.

As to B9, the “3F8 Ortho Proliferation Signal 1:2” value came out at 30300 cts/min, the “3F8 Ortho Proliferation Signal 1:10” value was determined as 24500 cts/min, the “3F8 Ortho Proliferation Signal 1:50” value was determined as 8130 cts/min and the “Relative Proliferation Fold Change 3F8 1:2” value came out at 125 fold. Further, the “Relative Proliferation Fold Change 3F8 1:10” value was found to be 26.5 fold and the “Relative Proliferation Fold Change 3F8 1:50” value was determined as 13.2 fold.

Regarding B10, the “3F8 Ortho Proliferation Signal 1:2” value is 38900 cts/min, the “3F8 Ortho Proliferation Signal 1:10” value came out at 34800 cts/min, the “3F8 Ortho Proliferation Signal 1:50” value came to 16000 cts/min and the “Relative Proliferation Fold Change 3F8 1:2” value turned out to be 30.5 fold. Moreover, the “Relative Proliferation Fold Change 3F8 1:10” value was found to be 15.1 fold and the “Relative Proliferation Fold Change 3F8 1:50” value was determined as 7.52 fold.

For the origin of these results see patent publication US20210196796A1 (SYNTHEKINE, published 2021).
